Consider one molecule from article PMC3448007.

The target in the data set is NKX2.5 homeodomain (C56S) (Homo sapiens, UniProt P52952 137-197, C193S). As to the kind of experiment: crystal structure.
Chain of NKX2.5 homeodomain (C56S) (P52952 137-197 C193S): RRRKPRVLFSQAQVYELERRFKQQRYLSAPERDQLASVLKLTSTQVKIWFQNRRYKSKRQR

B1: ANF-242 19-bp (dsDNA)
DNA 1: TGAAGTGGGGGCCACTTGA
DNA 2: TCAAGTGGCCCCCACTTCA
As for B1, the binding result is “binds”.
